Experimental data published in paper PMC12220430.
Where two headings read alike, the source gives them in different places.

B1: R1 (dsDNA)
DNA 1: TGGGGTGGTGGTAGTGGACTGCCACATGACACCCTGTGGCTTCAGAA
DNA 2: TTCTGAAGCCACAGGGTGTCATGTGGCAGTCCACTACCACCACCCCA
B2: R2 (dsDNA)
DNA 1: TCAACCATGGCCAATTTGGGGAAGGTGGACTGATTT
DNA 2: AAATCAGTCCACCTTCCCCAAATTGGCCATGGTTGA
B3: ST2 (dsDNA)
DNA 1: CTTCTCATTGGCCCTTGCTGTGGCCTGCTC
DNA 2: GAGCAGGCCACAGCAAGGGCCAATGAGAAG
B4: ST2a (dsDNA)
DNA 1: CTTCTCATTGGCCCTTGCTAAAACCTGCTC
DNA 2: GAGCAGGTTTTAGCAAGGGCCAATGAGAAG
B5: ST (dsDNA)
DNA 1: ACGAAAACGATCCACCGCCTTCTCATTGGCCCTTGCTGTGGCCTGCT
DNA 2: AGCAGGCCACAGCAAGGGCCAATGAGAAGGCGGTGGATCGTTTTCGT
B6: ST2b (dsDNA)
DNA 1: CTTCTCAAAAACCCTTGCTGTGGCCTGCTC
DNA 2: GAGCAGGCCACAGCAAGGGTTTTTGAGAAG

How the values were obtained:
[1] = target: T1, rPdxR (Sco1417) (Streptomyces coelicolor A3(2) M145) (UniProt Q9RKX6); experiment: competition
T1 sequence: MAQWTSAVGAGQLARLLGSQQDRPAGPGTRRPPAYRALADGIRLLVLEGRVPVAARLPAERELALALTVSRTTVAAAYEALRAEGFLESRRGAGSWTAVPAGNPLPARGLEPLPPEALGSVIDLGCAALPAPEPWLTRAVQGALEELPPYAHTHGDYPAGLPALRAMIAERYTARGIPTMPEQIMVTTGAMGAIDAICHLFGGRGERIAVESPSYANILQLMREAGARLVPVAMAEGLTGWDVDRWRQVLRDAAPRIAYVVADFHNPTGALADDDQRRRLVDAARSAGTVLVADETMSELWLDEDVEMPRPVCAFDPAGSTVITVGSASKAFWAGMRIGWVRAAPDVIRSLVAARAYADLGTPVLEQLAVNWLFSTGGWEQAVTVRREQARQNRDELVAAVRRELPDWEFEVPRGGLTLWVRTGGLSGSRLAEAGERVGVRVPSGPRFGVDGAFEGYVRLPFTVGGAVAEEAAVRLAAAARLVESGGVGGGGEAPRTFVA

[2] = target: T2, rPdxR (Sco1417) (Streptomyces coelicolor A3(2) M145, UniProt Q9RKX6); experiment: EMSA
T2 sequence: T1 sequence

[3] = target: T2, rPdxR (Sco1417); experiment: EMSA; remark: listed apart in the source

Molecule	binding result [2]	further results
TGCTGGACACGGGTACCTCACTGGGGAGAAGGGGGGTTGTGCAGCAACGAGGAAACGTGAGGTGAGCAGGCCACAGCAAGGGCCAATGAGAAGGCGGTGGATCGTTTTCGTCCCCCGGGCGCTACGCCGCCCGCTCCACCAGGGCGGCCGGCGACTCGTCGTCCATCTCGAAGGCCAGCGGGAAGGGCGCGTGCCCGGCGAGGCGGAACCAGCGGACCTTGCGGTGCTCGCGCAGCCTGCGGGCCGCCCCCACCGCGTCGTTGTGGAAGCGGCGG (double strand) [pdxSTp]		binding [1]: binds
ACTGCGCCATGGAAATCAGTCCACCTTCCCCAAATTGGCCATGGTTGACTCTTCTTCTGAAGCCACAGGGTGTCATGTGGCAGTCCACTACCACCACCCCAGGGGGCACTTCTTGTCCAGGCAGTCCAGACAGTCGAGGCAATCCGGGCAGTCCGGATGGTCCGGGCGACTCGCGCGGCGGCTGACGCAGCTCTACGGCGGTCTCGTCCTGTACGGAGCGAGTTCGGCGCTGCTGGTCAGGTCCGGGCTCGGCCTCGAACCGTGGAACGTGCTGCACCAG (double strand) [pdxRp]		binding [1]: binds
B1	binds	
B2	binds	
B3	binds	
B4		binding result [3]: no binding
B5	binds	
B6		binding result [3]: no binding
